Sequences and labels used below:
B1: CPEB3 Ribozyme (parent)
chain: GGGGGCCACAGCAGAAGCGUUCACGUCGCGGCCCCUGUCAGAUUCUGGUGAAUCUGCGAAUUCUGCUGU

The variants in the series derive from B1. In words: self-cleavage, relative activity (ratio to wild type); higher = more cleavage; co-transcriptional.
Regarding GGGGGCUACAGCAGAAGCGUUCACGUCGCGGCCCCUGUCAGAUUCUGGUGAAUCUGCGAAUUCUGCUAU, the self-cleavage was 0.971.
For GGGGGCUACAGCAGAAGCGUUCACGUCGCGGCCCCUGUCAGAUUCUGGUGAAUCUGCGAAUUCUGCUCU, the self-cleavage came to 0.673.
GGGGGCUACAGCAGAAGCGUUCACGUCGCGCCCCCUGUCAGAUUCUGGUGAAUCUGCGAAUUCUGCUGU: the self-cleavage stood at 0.222.
For GGGGGCUACAGCAGAAGCGUUCACGUCGCGUCCCCUGUCAGAUUCUGGUGAAUCUGCGAAUUCUGCUGU, the self-cleavage was 0.365.
Consider GGGGGCCCCAGCAGACGCGUUCACGUCGCGGCCCCUGUCAGAUUCUGGUGAAUCUGCGAAUUCUGCUGU, for which the self-cleavage was determined as 0.325.
For the variant GGGGGCCCCAGCAGAUGCGUUCACGUCGCGGCCCCUGUCAGAUUCUGGUGAAUCUGCGAAUUCUGCUGU, the self-cleavage is 0.843.
With GGGGGCCCCAGCAGAGGCGUUCACGUCGCGGCCCCUGUCAGAUUCUGGUGAAUCUGCGAAUUCUGCUGU, the self-cleavage is 0.962.
GGGGGCUACAGCAGAAGCGUUCACGUCGCGGCCCCUGUCAGAUUCUGGUGAAUCUGCGAAUUCUGCCGU: the self-cleavage is 0.982.
Then GGGGGCUACAGCAGAAGCGUUCACGUCGCGGCCCCUGUCAGAUUCUGGUGAAUCUGCGAAUUCUGCAGU, with 0.985.
Take GGGGGCUACAGCAGAAGCGUUCACGUCGCGGCCCCUGUCAGAUUCUGGUGAAUCUGCGAAUUCUGCGGU: the self-cleavage stood at 0.959.
On to GGGGGCUACAGCAGAAGCGUUCACGUCGCGGCCCCUGUCAGAUUCUGGUGAAUCUGCGAAUUCUGCUGG, for which the self-cleavage was 1.03.
For GGGGGCUACAGCAGAAGCGUUCACGUCGCGGCCCCUGUCAGAUUCUGGUGAAUCUGCGAAUUCUGCUGC, the self-cleavage was 1.06.
In the case of GGGGGCUACAGCAGAAGCGUUCACGUCGCGGCCCCUGUCAGAUUCUGGUGAAUCUGCGAAUUCUGCUGA, the self-cleavage is 1.02.
Then GGGGGCUACAGCAUAAGCGUUCACGUCGCGGCCCCUGUCAGAUUCUGGUGAAUCUGCGAAUUCUGCUGU, with 0.503; and GGGGGCUACAGCAGAAGCGUUCACGUCGCGGCCCCUGUCAGAUUCUGAUGAAUCUGCGAAUUCUGCUGU, with 0.987; and GGGGGCUACAGCAGAAGCGUUCACGUCGCGGCCCCUGUCAGAUUCUGUUGAAUCUGCGAAUUCUGCUGU, with 0.966.
Then GGGGGCUACAGCAGAAGCGUUCACGUCCCGGCCCCUGUCAGAUUCUGGUGAAUCUGCGAAUUCUGCUGU, with 0.197; and GGGGGCUACAGCAGAAGCGUUCACGUCUCGGCCCCUGUCAGAUUCUGGUGAAUCUGCGAAUUCUGCUGU, with 0.146; and GGGGGCUACAGCAGAAGCGUUCACGUCGCGGCCCCUGUCAGAUUCUGGUGAAUCUGCGAAUUCUUCUGU, with 0.612.
For the variant GGGGGCUACAGCAGAAGCGUUCACGUCGCGGCCCCUGUCAGAUUCUGGUGAAUCUGCGAAUUCUACUGU, the self-cleavage was determined as 0.781.
Consider GGGGGCUACAGCAGAAGCGUUCACGUCGCGGCCCCUGUCAGAUUCUGGUGAAUCUGCGAAUUCUCCUGU, for which the self-cleavage was 0.604.
On to GGGGGCCCCAGCAGAAGCGUUCACGUCGCGGCCCCUGUCGGAUUCUGGUGAAUCUGCGAAUUCUGCUGU, for which the self-cleavage is 0.958.
Consider GGGGGCUACAGCAGAAGCGUACACGUCGCGGCCCCUGUCAGAUUCUGGUGAAUCUGCGAAUUCUGCUGU, for which the self-cleavage came to 0.967.
Take GGGGGCUACAGCAGAAGCGUGCACGUCGCGGCCCCUGUCAGAUUCUGGUGAAUCUGCGAAUUCUGCUGU: the self-cleavage came out at 0.34.
Then GGGGGCCCCAGCAGCAGCGUUCACGUCGCGGCCCCUGUCAGAUUCUGGUGAAUCUGCGAAUUCUGCUGU, with 0.726.
As for GGGGGCCCCAGCAGUAGCGUUCACGUCGCGGCCCCUGUCAGAUUCUGGUGAAUCUGCGAAUUCUGCUGU, the self-cleavage was determined as 0.873.
With GGGGGCUACAGCAGAAGCGUUCACGUCGCGGCCCCUGUCAGAUUCUGGUUAAUCUGCGAAUUCUGCUGU, the self-cleavage worked out at 0.96.
For GGGGGCUACAGCAGAAGCGUUCACGUCGCGGCCCCUGUCAGAUUCUGGUCAAUCUGCGAAUUCUGCUGU, the self-cleavage stood at 0.965.
Regarding GGGGGCUACAGCAGAAGCGUUCACGUCGCGGCCCCUGUCAAAUUCUGGUGAAUCUGCGAAUUCUGCUGU, the self-cleavage worked out at 0.748.
In the case of GGGGGCUACAGCAGAAGCGUUCACGUCGCGGCCCCUGUCAUAUUCUGGUGAAUCUGCGAAUUCUGCUGU, the self-cleavage amounted to 0.692.
GGGGGCUACAGCAGAAGCGUUCACGUCGCGGCCCCUGUCAGACUCUGGUGAAUCUGCGAAUUCUGCUGU: the self-cleavage stood at 0.967.
The figure for GGGGGCUACAGCAGAAGCGUUCACGUCGCGGCCCCUGUCAGAAUCUGGUGAAUCUGCGAAUUCUGCUGU is 0.828; for GGGGGCUACAGCAGAAGCGUUCACGUCGCGGCCCCUGACAGAUUCUGGUGAAUCUGCGAAUUCUGCUGU it is 0.774.
For the variant GGGGGCUACAGCAGAAGCGUUCACGUCGCGGCCCCUGCCAGAUUCUGGUGAAUCUGCGAAUUCUGCUGU, the self-cleavage was determined as 0.819.
As for GGGGGCUACAGCAGAAGCGUUCACGUCGCGGCCCCUGGCAGAUUCUGGUGAAUCUGCGAAUUCUGCUGU, the self-cleavage was 0.193.
As for GGGGGCUACAGCAGAAGCGUUCACGUCGCGGCCCCUGUCAGAUCCUGGUGAAUCUGCGAAUUCUGCUGU, the self-cleavage was determined as 0.829.
GGGGGCCCCAGCAGAAGCGUUCCCGUCGCGGCCCCUGUCAGAUUCUGGUGAAUCUGCGAAUUCUGCUGU: the self-cleavage turned out to be 0.907.
For GGGGGCCCCAGCAGAAGCGUUCUCGUCGCGGCCCCUGUCAGAUUCUGGUGAAUCUGCGAAUUCUGCUGU, the self-cleavage is 1.01.
Then GGGGGCCCCAGCAGAAGCGUUCGCGUCGCGGCCCCUGUCAGAUUCUGGUGAAUCUGCGAAUUCUGCUGU, with 0.997.
In the case of GGGGGCUACAGCAGAAGCGUUCACGUCGCGGCCCCUGUCAGAUUCUGGUGAAUCUGCCAAUUCUGCUGU, the self-cleavage turned out to be 0.873.
The figure for GGGGGCUACAGCAGAAGCGUUCACGUCGCGGCCCCUGUCAGAUUCUGGUGAAUCUGCAAAUUCUGCUGU is 0.928; for GGGGGCUACAGCAGAAGCGUUCACGUCGCGGCCCCUGUCAGAUUCUGGUGAAUCUGCGAAUUCCGCUGU it is 0.794; for GGGGGCUACAGCAGAAGCGUUCACGUCGCGGCCCCUGUCAGAUUCUGGUGAAUCUGCGAAUUCAGCUGU it is 0.908.
Turning to GGGGGCCCCUGCAGAAGCGUUCACGUCGCGGCCCCUGUCAGAUUCUGGUGAAUCUGCGAAUUCUGCUGU, the self-cleavage was 0.966.
On to GGGGGCCCCGGCAGAAGCGUUCACGUCGCGGCCCCUGUCAGAUUCUGGUGAAUCUGCGAAUUCUGCUGU, for which the self-cleavage was determined as 0.941.
As to GGGGGCCCCCGCAGAAGCGUUCACGUCGCGGCCCCUGUCAGAUUCUGGUGAAUCUGCGAAUUCUGCUGU, the self-cleavage is 0.975.
As for GGGGGCUACAGCAGAAGCGUUCACGUCGCGGCCCCUGUCAGAUUCCGGUGAAUCUGCGAAUUCUGCUGU, the self-cleavage was determined as 0.973.
Then GGGGGCCCCAGCAGAAGCGUUCACGUCGCGGCCCCUGUCAGAUUCUGGUGAAUCUGCGAAUUCUGCUGU, with 0.999; and GGGGGCUACAGCAGAAGCGUUCACGUCGCGGCCCCUGUCAGAUUCUGGUGAAUCUCCGAAUUCUGCUGU, with 0.618.
In the case of GGGGGCUACAGCAGAAGCGUUCACGUCGCGGCCCCUGUCAGAUUCUGGUGAAUCUUCGAAUUCUGCUGU, the self-cleavage was found to be 0.849.
On to GGGGGCUACAGCAGAAGCGUUCACAUCGCGGCCCCUGUCAGAUUCUGGUGAAUCUGCGAAUUCUGCUGU, for which the self-cleavage is 0.144.
Take GGGGGCUACAGCAGAAGCGUUCACCUCGCGGCCCCUGUCAGAUUCUGGUGAAUCUGCGAAUUCUGCUGU: the self-cleavage is 0.0703.
Consider GGGGGCUACAGCAGAAGCGUUCACGUCGCGGCCCCUGUCAGAUUCUCGUGAAUCUGCGAAUUCUGCUGU, for which the self-cleavage was determined as 0.917.
For the variant GGGGGCUACAGCAGAAGCGUUCACGUCGCGGCCCCUGUCAGAUUCUAGUGAAUCUGCGAAUUCUGCUGU, the self-cleavage was determined as 0.954.
With GGGGGCUACAGCAGAAGCGUUCACGUCGCGGCCCCUGUCAGAUUCUGGUGAAUCAGCGAAUUCUGCUGU, the self-cleavage is 0.914.
Turning to GGGGGCUACAGCAGAAGCGUUCACGCCGCGGCCCCUGUCAGAUUCUGGUGAAUCUGCGAAUUCUGCUGU, the self-cleavage amounted to 1.01.
Consider GGGGGCUACAGCAGAAGCGUUCACGUCGCGGCCCCUGUCAGAUUCUGGUGAAUCUGCGAAUGCUGCUGU, for which the self-cleavage was found to be 0.595.
As to GGGGGCUACAGCAGAAGCGUUCACGUCGCGGCCCCUGUCAGAUUCUGGUGAAUCUGCGAAUACUGCUGU, the self-cleavage was 0.638.
For the variant GGGGGCUACAGCAGAAGCGUUCACGUCGCGGCCCCUGUCAGAUUCUGGUGAAUCUGCGAAUCCUGCUGU, the self-cleavage came to 0.725.
In the case of GGGGGCUACAGCAGAAGCGAUCACGUCGCGGCCCCUGUCAGAUUCUGGUGAAUCUGCGAAUUCUGCUGU, the self-cleavage was determined as 0.112.
Turning to GGGGGCUACAGCAGAAGCGCUCACGUCGCGGCCCCUGUCAGAUUCUGGUGAAUCUGCGAAUUCUGCUGU, the self-cleavage stood at 0.158.
For the variant GGGGGCUACAGCAGAAGCGUUCACGUCGCGGCCCCUGUCAGAUUCUGGCGAAUCUGCGAAUUCUGCUGU, the self-cleavage was found to be 0.854.
Then GGGGGCUACAGCAGAAGCGUUCACGUCGCGGCCCCUGUCAGAUUCUGGGGAAUCUGCGAAUUCUGCUGU, with 0.993; and GGGGGCUACAGCAGAAGCGUUCACGUCGCGGCCCCUGUCAGAUUCUGGUGAAUCUGCGAACUCUGCUGU, with 0.492.
Consider GGGGGCUACAGCAGAAGCGUUCACGUCGCGGCCCCUGUCAGAUUCUGGUGAAUCUGCGAAAUCUGCUGU, for which the self-cleavage is 0.805.
As to GGGGGCUACAGCAGAAACGUUCACGUCGCGGCCCCUGUCAGAUUCUGGUGAAUCUGCGAAUUCUGCUGU, the self-cleavage came to 0.175.
On to GGGGGCUACAGCAGAACCGUUCACGUCGCGGCCCCUGUCAGAUUCUGGUGAAUCUGCGAAUUCUGCUGU, for which the self-cleavage is 0.122.
For GGGGGCUACAGCAGAAUCGUUCACGUCGCGGCCCCUGUCAGAUUCUGGUGAAUCUGCGAAUUCUGCUGU, the self-cleavage was found to be 0.243.
With GGGGGCUACAGCAGAAGCGUUCACGUCGCGGCCCCUUUCAGAUUCUGGUGAAUCUGCGAAUUCUGCUGU, the self-cleavage was found to be 0.214.
For GGGGGCUACAGCAGAAGCGUUCACGUCGCGGCCCCCGUCAGAUUCUGGUGAAUCUGCGAAUUCUGCUGU, the self-cleavage was 0.806.
Turning to GGGGGCUACAGCAGAAGCGUUCACGUCGCGGCCCCGGUCAGAUUCUGGUGAAUCUGCGAAUUCUGCUGU, the self-cleavage stood at 0.166.
Turning to GGGGGCUACAGCAGAAGCGUUCACGUCGCGGCCCCAGUCAGAUUCUGGUGAAUCUGCGAAUUCUGCUGU, the self-cleavage was found to be 0.194.
As for GGGGGCUACAGCAGAAGCGUUCACGUCGCGGCCCCUGUCAGAUUCUGGUGAAGCUGCGAAUUCUGCUGU, the self-cleavage was 0.949.
Then GGGGGCUACAGCAGAAGCGUUCACGUCGCGGCCCCUGUCAGAUUCUGGUGAAACUGCGAAUUCUGCUGU, with 0.861.
Regarding GGGGGCUACAGCAGAAGCUUUCACGUCGCGGCCCCUGUCAGAUUCUGGUGAAUCUGCGAAUUCUGCUGU, the self-cleavage is 0.247.
Turning to GGGGGCUACAGCAGAAGCCUUCACGUCGCGGCCCCUGUCAGAUUCUGGUGAAUCUGCGAAUUCUGCUGU, the self-cleavage was found to be 0.155.
With GGGGGCUACAGCAGAAGCAUUCACGUCGCGGCCCCUGUCAGAUUCUGGUGAAUCUGCGAAUUCUGCUGU, the self-cleavage was found to be 0.113.
On to GGGGGCCCCAGCCGAAGCGUUCACGUCGCGGCCCCUGUCAGAUUCUGGUGAAUCUGCGAAUUCUGCUGU, for which the self-cleavage turned out to be 0.927.

Source of the values: the RNAGym collection of RNA variant scans (doi:10.7554/elife.80360).
